Measured values published in article PMC8897712 (The Journal of Biological Chemistry, 2022).
Read-outs that look alike come from different tables or passages of the source. Values belong to the molecule of their own block, whether it stands above or below them.

Tests used:
FtsA(ΔMTS) [1] = molecular target: T1, FtsA(ΔMTS) (Escherichia coli, UniProt P0ABH0); test: sedimentation of polymers; type: biochemical; details: 50 mM Tris-HCl pH 7.5, 150 mM KCl, 4 mM MgCl2, 23 °C; polymerisation
T1 sequence (P0ABH0 1-404): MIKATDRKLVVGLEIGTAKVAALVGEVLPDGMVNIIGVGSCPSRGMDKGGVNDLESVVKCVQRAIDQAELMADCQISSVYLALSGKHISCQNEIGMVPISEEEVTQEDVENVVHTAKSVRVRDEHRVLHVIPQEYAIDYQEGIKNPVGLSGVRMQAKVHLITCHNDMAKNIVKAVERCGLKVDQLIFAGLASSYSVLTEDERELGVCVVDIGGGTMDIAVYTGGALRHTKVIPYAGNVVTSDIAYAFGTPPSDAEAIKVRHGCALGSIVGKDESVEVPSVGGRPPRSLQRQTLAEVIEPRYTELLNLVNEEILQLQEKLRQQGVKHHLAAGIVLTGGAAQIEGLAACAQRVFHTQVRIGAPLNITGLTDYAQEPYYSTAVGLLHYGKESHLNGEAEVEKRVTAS

FtsA(ΔMTS) [2] = molecular target: T1, FtsA(ΔMTS); details: 50 mM Tris-HCl pH 7.5, 150 mM KCl, 4 mM MgCl2, 23 °C, ATP 4 mM; polymerisation
Escherichia coli FtsA = molecular target: T2, Escherichia coli FtsA (E. coli, UniProt P0ABH0 1-420); test: co-sedimentation
T2 sequence: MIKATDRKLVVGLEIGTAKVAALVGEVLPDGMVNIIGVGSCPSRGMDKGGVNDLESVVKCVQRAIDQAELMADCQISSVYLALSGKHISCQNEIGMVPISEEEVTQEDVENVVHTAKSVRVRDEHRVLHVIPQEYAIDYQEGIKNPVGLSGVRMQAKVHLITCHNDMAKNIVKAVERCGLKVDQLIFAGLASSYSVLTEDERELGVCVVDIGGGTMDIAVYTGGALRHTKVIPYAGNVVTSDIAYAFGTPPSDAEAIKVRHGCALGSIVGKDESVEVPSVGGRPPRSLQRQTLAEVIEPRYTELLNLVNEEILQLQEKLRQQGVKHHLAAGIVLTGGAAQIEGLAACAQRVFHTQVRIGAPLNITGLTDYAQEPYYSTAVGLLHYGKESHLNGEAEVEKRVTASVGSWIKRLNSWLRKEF

FtsA(E14R) = molecular target: T3, FtsA(E14R) (E. coli, UniProt P0ABH0 1-420, E14R); test: co-sedimentation
T3 sequence: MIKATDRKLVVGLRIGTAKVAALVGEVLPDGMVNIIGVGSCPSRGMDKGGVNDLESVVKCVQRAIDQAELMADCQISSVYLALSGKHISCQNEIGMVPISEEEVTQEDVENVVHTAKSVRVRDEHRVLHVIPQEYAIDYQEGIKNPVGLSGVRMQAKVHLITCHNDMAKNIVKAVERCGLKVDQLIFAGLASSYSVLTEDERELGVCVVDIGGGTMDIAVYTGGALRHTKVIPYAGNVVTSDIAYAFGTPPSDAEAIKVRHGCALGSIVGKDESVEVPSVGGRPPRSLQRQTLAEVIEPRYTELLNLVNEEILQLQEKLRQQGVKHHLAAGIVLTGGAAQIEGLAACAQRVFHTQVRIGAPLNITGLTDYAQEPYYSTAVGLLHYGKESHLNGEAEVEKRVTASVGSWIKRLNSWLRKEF

FtsA(ΔMTS) [3] = molecular target: T4, FtsA(ΔMTS) (E. coli, UniProt P0ABH0 1-404); test: negative-stain transmission electron microscopy
T4 sequence: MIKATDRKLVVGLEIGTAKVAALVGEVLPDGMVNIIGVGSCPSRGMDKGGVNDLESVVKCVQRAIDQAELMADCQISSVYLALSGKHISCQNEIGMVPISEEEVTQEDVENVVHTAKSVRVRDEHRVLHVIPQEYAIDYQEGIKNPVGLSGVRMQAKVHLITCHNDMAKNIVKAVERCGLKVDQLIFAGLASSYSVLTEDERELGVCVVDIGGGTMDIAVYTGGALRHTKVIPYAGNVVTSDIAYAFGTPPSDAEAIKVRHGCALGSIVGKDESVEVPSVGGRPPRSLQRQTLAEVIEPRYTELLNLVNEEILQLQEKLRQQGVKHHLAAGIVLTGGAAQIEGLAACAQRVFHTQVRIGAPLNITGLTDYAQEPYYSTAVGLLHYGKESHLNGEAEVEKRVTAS

[4] = molecular target: the molecule itself; test: negative-stain transmission electron microscopy
FtsA(ΔMTS) [5] = molecular target: T4, FtsA(ΔMTS); test: bead recruitment assay

Molecule: Nc1ncnc2c1ncn2[C@@H]1O[C@H](COP(=O)(O)OP(=O)(O)O)[C@@H](O)[C@H]1O [ADP]
- % FtsA(ΔMTS) in pellet (FtsA(ΔMTS) [1]): 22.4%

Molecule: Nc1ncnc2c1ncn2[C@@H]1O[C@H](COP(=O)(O)OP(=O)(O)OP(=O)(O)O)[C@@H](O)[C@H]1O [ATP]
- % FtsA(ΔMTS) in pellet (FtsA(ΔMTS) [2]): 50.0%

Further lines, with some results ahead:

- binding result (Escherichia coli FtsA): binds
- binding result (FtsA(E14R)): binds
- binding result (FtsA(ΔMTS) [3]): binds
B1: Escherichia coli FtsZ (natural protein)
chain: MFEPMELTNDAVIKVIGVGGGGGNAVEHMVRERIEGVEFFAVNTDAQALRKTAVGQTIQIGSGITKGLGAGANPEVGRNAADEDRDALRAALEGADMVFIAAGMGGGTGTGAAPVVAEVAKDLGILTVAVVTKPFNFEGKKRMAFAEQGITELSKHVDSLITIPNDKLLKVLGRGISLLDAFGAANDVLKGAVQGIAELITRPGLMNVDFADVRTVMSEMGYAMMGSGVASGEDRAEEAAEMAISSPLLEDIDLSGARGVLVNITAGFDLRLDEFETVGNTIRAFASDNATVVIGTSLDPDMNDELRVTVVATGIGMDKRPEITLVTNKQVQQPVMDRYQQHGMAPLTQEQKPVAKVVNDNAPQTAKEPDYLDIPAFLRKQAD
- binding result [4]: binds

- binding result (FtsA(ΔMTS) [5]): binds
B2: H6-Gfp-FtsZ (natural protein)
chain: MFEPMELTNDAVIKVIGVGGGGGNAVEHMVRERIEGVEFFAVNTDAQALRKTAVGQTIQIGSGITKGLGAGANPEVGRNAADEDRDALRAALEGADMVFIAAGMGGGTGTGAAPVVAEVAKDLGILTVAVVTKPFNFEGKKRMAFAEQGITELSKHVDSLITIPNDKLLKVLGRGISLLDAFGAANDVLKGAVQGIAELITRPGLMNVDFADVRTVMSEMGYAMMGSGVASGEDRAEEAAEMAISSPLLEDIDLSGARGVLVNITAGFDLRLDEFETVGNTIRAFASDNATVVIGTSLDPDMNDELRVTVVATGIGMDKRPEITLVTNKQVQQPVMDRYQQHGMAPLTQEQKPVAKVVNDNAPQTAKEPDYLDIPAFLRKQAD
